Data: paper doi:10.1101/2022.05.07.491051 (bioRxiv, 2022)
Read-outs that look alike come from different tables or passages of the source.

B1: AbTir^TIR (amino acid 134-267) (domain or fragment, Acinetobacter, UniProt A0A009IHW8 134-267, looked up)
chain: EYDLFISHASEDKEDFVRPLAETLQQLGVNVWYDEFTLKVGDSLRQKIDSGLRNSKYGTVVLSTDFIKKDWTNYELDGLVAREMNGHKMILPIWHKITKNDVLDYSPNLADKVALNTSVNSIEEIAHQLADVIL
B2: AbThsA (Acinetobacter baumannii ThsA) (enzyme, UniProt P0DW59 1-482, looked up)
chain: MFEHEQKIMIDRIVKELEENNFAIFAGAGLSAPAGYVNWKELLRPLSIELNLDIDKETDLVSLAQYYVNENHGRNRLTERLIDEVGVAREPTPNHKILAKLPISTYWTTNYDDLIEKALDNEGKIADKKFTKNHLSQTKKGRSAVVYKMHGDASLPDQAIITKDQYESYPLHFAPFVTALSGDLVSKTFLFLGFSFNDPNLDYILSRIRIHFEQNQRQHYCIFRKVNRADYSNDEDFSYNLLKQQFVIKDLARFSIKVVLIDAWNDLTRILEEITKRFRCKNVFLSGSAHEFGSWGQTATELFLSKLGEVLIQEGFKITSGLGLGIGNAFISGAIKEIYNRKYTKIDDYLTMKVFPQFVADPTERKNIWTAWRKDLLSQTGIALFFMGNKIIKDPESGKQTIVLADGMDEEFHIAHELGLKLIPIGASGYKAKELFNQIISDFDHYYPNSSPKFREAFEKLNEEVDEPVKLLSKIHDVIKLI
B3: SeThsA^SIR2 (residues 1-283) (domain or fragment, Streptococcus equi, UniProt C0MAL8 1-283, looked up)
chain: MFIIKGEVSRKDLIREIEKAIKSDELGAFIGAGLSIPAGFCSWKELLREPAEEIGLDVEKESDLVNLAQYYSNSKKRTSIDDLIKGQFSQLVKPTENHKLLSQLPISTFWTTNYDKLIEKALENNMKKPYVKTKDEQLRGTNHNFDAIVYKLHGDVETPEDAVITRSDYEEFGYNKRKLFREVLEGDLLTKTFLFLGFSFEDPNFNYVIGRLRVLLDEKNTRKHYCIMKRVQDADEDYEYKKARQELQIEDLNRYGIFTYLVNKYDEITEILSTLVDRFRRKT
B4: BcThsA, full-length (Bacillus cereus MSX-D12 Thoeris ThsA) (enzyme, Bacilus cereus MSX-D12, UniProt J8G6Z1 1-476, looked up)
chain: MKMNPIVELFIKDFTKEVMEENAAIFAGAGLSMSVGYVSWAKLLEPIAQEIGLDVNKENDLVSLAQYYCNENQGNRGRINQIILDEFSRKVDLTENHKILARLPIHTYWTTNYDRLIEKALEEENKIADVKYTVKQLATTKVKRDAVVYKMHGDVEHPSEAVLIKDDYEKYSIKMDPYIKALSGDLVSKTFLFVGFSFTDPNLDYILSRVRSAYERDQRRHYCLIKKEERRPDELEADFEYRVRKQELFISDLSRFNIKTIVLNNYNEITEILQRIENNIKTKTVFLSGSAVEYNHWETEHAEQFIHQLSKELIRKDFNIVSGFGLGVGSFVINGVLEELYMNQGTIDDDRLILRPFPQGKKGEEQWDKYRRDMITRTGVSIFLYGNKIDKGQVVKAKGVQSEFNISFEQNNYVVPVGATGYIAKDLWNKVNEEFETYYPGADARMKKLFGELNNEALSIEELINTIIEFVEILSN
B5: AbTir^full-length (amino acid 1-269) (natural protein, Acinetobacter, UniProt A0A009IHW8 1-269, looked up)
chain: MSLEQKKGADIISKILQIQNSIGKTTSPSTLKTKLSEISRKEQENARIQSKLSDLQKKKIDIDNKLLKEKQNLIKEEILERKKLEVLTKKQQKDEIEHQKKLKREIDAIKASTQYITDVSISSYNNTIPETEPEYDLFISHASEDKEDFVRPLAETLQQLGVNVWYDEFTLKVGDSLRQKIDSGLRNSKYGTVVLSTDFIKKDWTNYELDGLVAREMNGHKMILPIWHKITKNDVLDYSPNLADKVALNTSVNSIEEIAHQLADVILNR
B6: BtTir^TIR (residues 156-287) (domain or fragment, Bacteroides thetaiotaomicron, UniProt A0A0P0FGV9 156-287, looked up)
chain: QYDFFISHASEDKDDIVRDLAEALRNNGFEVWYDEFELKIGDSLRKKIDYGLSNANYGIVIISPSFVKKNWTEYELNGMVAREMNGHKVILPIWHKITKDEVLRFSPSLADKLALNTSIHTIDDIVENLKNL
B7: AbTir^CC (amino acid 27-118) (domain or fragment, Acinetobacter, UniProt A0A009IHW8 27-118, looked up)
chain: SPSTLKTKLSEISRKEQENARIQSKLSDLQKKKIDIDNKLLKEKQNLIKEEILERKKLEVLTKKQQKDEIEHQKKLKREIDAIKASTQYITD
B8: EfThsA (Enterococcus faecium ThsA) (enzyme, UniProt P0DW60 1-478, looked up)
chain: MDKKVLIKRFSEAIEKGNAAIFAGAGLSMSQGYVSWPELLNDPATEIGLDSKKETDLVTLAQYYKNENGGSRGILNQILMDNFGEELEISENHRILASLPIETYWTTNYDHLIEKSIREAYKNPQVKKNYTQLATTNPNVDTIVYKMHGDIDDVSSTVITRDDYEKYDDDSYALFKETLKGDLLTKTFLFLGFSFTDPNLERILSDIRWVLRENQRPHYCIMRKILKENFVDSEDFFDQERYNYELTKRRLQINDLSRFSINVVEVDDYSEITDILKSIRKKYLRKTIFISGSAVDYTPFTSESKGLKFVEKLAYRLSESGYRIVSGYGLGIGNSIVSGVLKQRRNLRKNNIQDVLSLRPLPLDMPHEWRRYRENIIAESGISIFVFGNKLESGEIVTADGMIEEFELSVQNENIVVPIGFTKGASKVLFDKIQENFSDYFDDSLKSKFQALEKLDTEGEVDKKVEQIVSLINSIQED
B9: BcThsA^SLOG (284-476) (domain or fragment, Bacilus cereus MSX-D12, UniProt J8G6Z1 284-476, looked up)
chain: TVFLSGSAVEYNHWETEHAEQFIHQLSKELIRKDFNIVSGFGLGVGSFVINGVLEELYMNQGTIDDDRLILRPFPQGKKGEEQWDKYRRDMITRTGVSIFLYGNKIDKGQVVKAKGVQSEFNISFEQNNYVVPVGATGYIAKDLWNKVNEEFETYYPGADARMKKLFGELNNEALSIEELINTIIEFVEILSN
B10: SeThsA (Streptococcus equi ThsA) (enzyme)
chain: MFIIKGEVSRKDLIREIEKAIKSDELGAFIGAGLSIPAGFCSWKELLREPAEEIGLDVEKESDLVNLAQYYSNSKKRTSIDDLIKGQFSQLVKPTENHKLLSQLPISTFWTTNYDKLIEKALENNMKKPYVKTKDEQLRGTNHNFDAIVYKLHGDVETPEDAVITRSDYEEFGYNKRKLFREVLEGDLLTKTFLFLGFSFEDPNFNYVIGRLRVLLDEKNTRKHYCIMKRVQDADEDYEYKKARQELQIEDLNRYGIFTYLVNKYDEITEILSTLVDRFRRKTIFISGSAYSYSAYSQKTGENFIHKLSFELSKNGYHIVNGYGKGVGEFVLNGVADYCLTHKSKINDFLTLMPFPQNSSLGIDLDKLYKENREQMIESCGIAIFLFGNKEAEDIASGVMDEYELSKKHGLVCLPIEYTGGASKEIYDQTTQEISDKNTISAIEQANKQCDGDIDMSVKNIVQAVKILNKEEF

What was measured:
SEC-MALS [1] = molecular target: the molecule itself; assay: SEC-MALS
SEC-MALS [2] = molecular target: the molecule itself; assay: SEC-MALS; remark: listed apart in the source
crystal structure = molecular target: the molecule itself; assay: crystal structure

Row | Protein | stoichiometry N (SEC-MALS [2]) | also measured
1 | B1 |  | binding result (SEC-MALS [1]): binds
2 | B2 | 4 | 
3 | B3 | 2 | 
4 | B4 | 4 | 
5 | B5 |  | stoichiometry N (SEC-MALS [1]): 2
6 | B6 |  | binding result (crystal structure): binds
7 | B7 |  | binding result (SEC-MALS [1]): binds
8 | B8 | 4 | 
9 | B9 | 2 | 
10 | B10 | 4 | 
